B1: triosephosphate isomerase 1 (Tpi1) (enzyme, UniProt Q9P940 1-248, looked up)
chain: MARQFFVGGNFKANGTKQQITSIIDNLNKADLPKDVEVVICPPALYLGLAVEQNKQPTVAIGAQNVFDKSCGAFTGETCASQILDVGASWTLTGHSERRTIIKESDEFIAEKTKFALDTGVKVILCIGETLEERKGGVTLDVCARQLDAVSKIVSDWSNIVVAYEPVWAIGTGLAATPEDAEETHKGIRAHLAKSIGAEQAEKTRILYGGSVNGKNAKDFKDKANVDGFLVGGASLKPEFVDIIKSRL
notes: source: purified from C. albicans ATCC 10231 hyphae cell wall extract (MonoQ, Superdex-200); for cross-linking: endogenous, in that extract
B2: Als3 (agglutinin-like sequence protein 3), isolated from the surface of C. albicans (natural protein)
chain: KTITGVFNSFNSLTWSNAATYNYKGPGTPTWNAVLGWSLDGTSASPGDTFTLNMPCVFKFTTSQTSVDLTAHGVKYATCQFQAGEEFMTFSTLTCTVSNTLTPSIKALGTVTLPLAFNVGGTGSSVDLEDSKCFTAGTNTVTFNDGGKKISINVDFERSNVDPKGYLTDSRVIPSLNKVSTLFVAPQCANGYTSGTMGFANTYGDVQIDCSNIHVGITKGLNDWNYPVSSESFSYTKTCSSNGIFITYKNVPAGYRPFVDAYISATDVNSYTLSYANEYTCAGGYWQRAPFTLRWTGYRNSDAGSNGIVIVATTRTVTDSTTAVTTLPFDPNRDKTKTIEILKPIPTTTITTSYVGVTTSYSTKTAPIGETATVIVDIPYHTTTTVTSKWTGTITSTTTHTNPTDSIDTVIVQVPSPNPTVTTTEYWSQSFATTTTITGPPGNTDTVLIREPPNHTVTTTEYWSESYTTTSTFTAPPGGTDSVIIKEPPNPTVTTTEYWSESYTTTTTVTAPPGGTDTVIIREPPNHTVTTTEYWSQSYTTTTTVIAPPGGTDSVIIREPPNPTVTTTEYWSQSYATTTTITAPPGETDTVLIREPPNHTVTTTEYWSQSYATTTTITAPPGETDTVLIREPPNHTVTTTEYWSQSYTTTTTVIAPPGGTDSVIIKEPPNPTVTTTEYWSQSYATTTTITAPPGETDTVLIREPPNHTVTTTEYWSQSYATTTTITAPPGETDTVLIREPPNHTVTTTEYWSQSFATTTTVTAPPGGTDTVIIREPPNHTVTTTEYWSQSFATTTTIIAPPGETDTVLIREPPNPTVTTTEYWSQSYTTATTVTAPPGGTDTVIIYDTMSSSEISSFSRPHYTNHTTLWSTTWVIETKTITETSCEGDKGCSWVSVSTRIVTIPNNIETPMVTNTVDTTTTESTLQSPSGIFSESGVSVETESSTFTTAQTNPSVPTTESEVVFTTKGNNGNGPYESPSTNVKSSMDENSEFTTSTAASTSTDIENETIATTGSVEASSPIISSSADETTTVTTTAESTSVIEQQTNNNGGGNAPSATSTSSPSTTTTANSDSVITSTTSTNQSQSQSNSDTQQTTLSQQMTSSLVSLHMLTTFDGS
notes: source: purified from C. albicans ATCC 10231 hyphae cell wall extract (β-1,3-glucanase and 2-mercaptoethanol; MonoQ, Superdex-200)
B3: enolase (Eno1) (enzyme)
chain: MSYATKIHARYVYDSRGNPTVEVDFTTDKGLFRSIVPSGASTGVHEALELRDGDKSKWLGKGVLKAVANVNDIIAPALIKAKIDVVDQAKIDEFLLSLDGTPNKSKLGANAILGVSLAAANAAAAAQGIPLYKHIANISNAKKGKFVLPVPFQNVLNGGSHAGGALAFQEFMIAPTGVSTFSEALRIGSEVYHNLKSLTKKKYGQSAGNVGDEGGVAPDIKTPKEALDLIMDAIDKAGYKGKVGIAMDVASSEFYKDGKYDLDFKNPESDPSKWLSGPQLADLYEQLISEYPIVSIEDPFAEDDWDAWVHFFERVGDKIQIVGDDLTVTNPTRIKTAIEKKAANALLLKVNQIGTLTESIQAANDSYAAGWGVMVSHRSGETEDTFIADLSVGLRSGQIKTGAPARSERLAKLNQILRIEEELGSEAIYAGKDFQKASQL
notes: source: purified from the cytosolic fraction of C. albicans cells (MonoQ, MonoS); for cross-linking: endogenous, in the cell wall protein extract of C. albicans hyphae
B4: Phosphoglycerate mutase 1 (Gpm1), recombinant (enzyme)
chain: MPKLVLVRHGQSEWNEKNLFTGWVDVRLSETGQKEAKRAGELLKEAGINVDVLHTSKLSRAIQTANIALDAADQLYVPVKRSWRLNERHYGALQGKDKAQTLEAYGQEKFQIWRRSFDVPPPKIDPKDEYSQVGDRRYADVDPAVVPLTESLALVIDRLLPYWQDEIAGDLLAGKVVLIAAHGNSLRALVKHLDNISDEDIAGLNIPTGIPLVYELDENLKPTKPSYYLDPEAAAAGAAAVAAQGQKK
B5: human neutrophil elastase (HNE) (enzyme, UniProt P08246 30-267, looked up)
chain: IVGGRRARPHAWPFMVSLQLRGGHFCGATLIAPNFVMSAAHCVANVNVRAVRVVLGAHNLSRREPTRQVFAVQRIFENGYDPVNLLNDIVILQLNGSATINANVQVAQLPAQGRRLGNGVQCLAMGWGLLGRNRGIASVLQELNVTVVTSLCRRSNVCTLVRGRQAGVCFGDSGSPLVCNGLIHGIASFVRGGCASGLYPDAFAPVAQFVNWIDSIIQRSEDNPCPHPRDPDPASRTH
modifications: sulfo-SBED crosslinker in the cross-linking experiment; in flow cytometry preincubated or not with 10 µM N-(Methoxysuccinyl)-Ala-Ala-Pro-Val-chloromethyl ketone
notes: source: bought: Biocentrum (Kraków, Poland)

Legend:
Settings in all cases: both partners purified
lactotransferrin (LF) = biological target: T1, lactotransferrin (LF) (human, UniProt P02788 20-710, NHS-fluorescein label in flow cytometry; sulfo-SBED crosslinker in the cross-linking experiment); experiment: SPR
T1 construct: also called lactoferrin; source: bought: Sigma
T1 sequence (P02788 20-710): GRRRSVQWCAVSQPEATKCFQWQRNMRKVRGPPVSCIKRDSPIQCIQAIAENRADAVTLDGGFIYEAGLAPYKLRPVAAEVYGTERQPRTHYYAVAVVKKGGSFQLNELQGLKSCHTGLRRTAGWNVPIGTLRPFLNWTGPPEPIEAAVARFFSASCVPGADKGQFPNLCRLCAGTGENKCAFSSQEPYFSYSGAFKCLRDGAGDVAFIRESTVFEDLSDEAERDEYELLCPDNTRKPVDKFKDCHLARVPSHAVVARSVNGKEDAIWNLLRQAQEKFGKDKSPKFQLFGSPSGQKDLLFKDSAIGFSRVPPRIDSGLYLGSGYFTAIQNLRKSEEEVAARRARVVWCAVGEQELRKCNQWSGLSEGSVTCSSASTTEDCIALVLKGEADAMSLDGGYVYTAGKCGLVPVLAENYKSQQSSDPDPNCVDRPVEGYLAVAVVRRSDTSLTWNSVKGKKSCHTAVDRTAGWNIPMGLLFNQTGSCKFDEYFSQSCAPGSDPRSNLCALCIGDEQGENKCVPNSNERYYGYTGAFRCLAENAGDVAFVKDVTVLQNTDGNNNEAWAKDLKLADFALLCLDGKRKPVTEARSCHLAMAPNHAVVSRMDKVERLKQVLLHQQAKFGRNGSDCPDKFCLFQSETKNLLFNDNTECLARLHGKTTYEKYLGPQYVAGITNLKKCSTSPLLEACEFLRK

histone H4 = histone H4 (human, UniProt P62805 1-103); experiment: ELISA-like microplate ligand-binding assay
[1] = biological target: B2; experiment: SPR

Row | Binder | Kd (histone H4) | further results
1 | B1 | – | Kd (lactotransferrin (LF)): 163 ± 0.2 nM
2 | B2 | 820 ± 330 nM | –
3 | B3 | 384 ± 130 nM | –
4 | B4 | 1900 ± 414 nM | –
5 | B5 | – | Kd [1]: 65 ± 5.3 nM

Source: publication PMC8534323, “Proteinous Components of Neutrophil Extracellular Traps Are Arrested by the Cell Wall Proteins of Candida albicans during Fungal Infection, and Can Be Used in the Host Invasion” (Cells, 2021)
